According to patent publication US11795460B2, “Compositions and methods for TTR gene editing and treating ATTR amyloidosis” (Intellia Therapeutics, Inc., priority 2017, dated 2023):
Strand notation (5' to 3'): a small letter for the sugar, then the base; units joined by * are phosphorothioate-linked, units joined directly phosphodiester-linked; [ ] holds rarer units or linkages, { } end groups; capitals alone tell only the bases. m = 2'-O-methyl; r = 2'-OH (RNA)

Tests used:
[1] = system: human TTR sequence; experiment: Liver editing in humanized TTR mice dosed with LNP formulations (Table 26); type: in vivo, mouse; conditions: for Liver editing: LNP Formulation Numbers 1-5, Cas9 mRNA SEQ ID NO:2, 2 mg/kg total RNA, mean values, FIG. 9; for % Editing: Table 26, liver editing, LNP Formulation Numbers 6-16, 1 mg/kg (total RNA content)
Method: Unless otherwise noted, CD-1 female mice, ranging from 6-10 weeks of age were used in each study. Animals were weighed and grouped according to body weight for preparing dosing solutions based on group average weight. LNPs were dosed via the lateral tail vein in a volume of 0.2 mL per animal (approximately 10 mL per kilogram body weight). […] Body weight was measured at twenty-four hours post-administration, and animals were euthanized at various time points by exsanguination via cardiac puncture under isoflourane anesthesia. Blood was collected into serum separator tubes or into tubes containing buffered sodium citrate for plasma as described herein. For studies involving in vivo editing, liver tissue was collected from the median lobe or from three independent lobes (e.g., the right median, left median, and left lateral lobes) from each animal for DNA extraction and analysis.
To quantitatively determine the efficiency of editing at the target location in the genome, sequencing was utilized to identify the presence of insertions and deletions introduced by gene editing.
Primers were designed around the target site within the gene of interest (e.g. TTR), and the genomic area of interest was amplified.
Additional PCR was performed per the manufacturer's protocols (Illumina) to add chemistry for sequencing. The amplicons were sequenced on an Illumina MiSeq instrument. The reads were aligned to a reference genome (e.g., the human reference genome (hg38), the cynomologus reference genome (mf5), the rat reference genome (rn6), or the mouse reference genome (mm10)) after eliminating those having low quality scores. The resulting files containing the reads were mapped to the reference genome (BAM files), where reads that overlapped the target region of interest were selected and the number of wild type reads versus the number of reads which contain an insertion, substitution, or deletion was calculated.
The editing percentage (e.g., the “editing efficiency” or “percent editing” or “indel frequency”) is defined as the total number of sequence reads with insertions/deletions (“indels”) or substitutions over the total number of sequence reads, including wild type.
Mice humanized with respect to the TTR gene were dosed with LNP formulations 701-704 containing the guides indicated in Table 25 (5 mice per formulation). These humanized TTR mice were engineered such that a region of the endogenous murine TTR locus was deleted and replaced with an orthologous human TTR sequence so that the locus encodes a human TTR protein. For comparison, 6 mice with murine TTR were dosed with LNP700, containing a guide (G000282) targeting murine TTR. […]

[2] = system: potential off-target sites; experiment: Targeted amplicon sequencing of potential off-target sites in PHH treated with LNPs (Tables 31-33); type: cell-based, human; conditions: for Indel Frequency (using LNP with 100 ng Cas9 mRNA and 14.68 nM gRNA) / Indel rate at the on-target site / Indels at in silico predicted off-target sites / Number of potential off-target sites identified by the oligo insertion assay at which indels were detected: PHH treated with LNP; for Indel Frequency (using LNP with 100 ng Cas9 mRNA and 14.68 nM gRNA): NGS targeted amplicon sequencing; for Indel rate at the on-target site / Indels at in silico predicted off-target sites / Number of potential off-target sites identified by the oligo insertion assay at which indels were detected: 100 ng Cas9 mRNA (SEQ ID NO:1), near-saturating dose; for Indel rate at the on-target site: gRNA 14.68 nM; for Number of potential off-target sites identified by the oligo insertion assay at which indels were detected: indels at low levels; for On-target indel rate at highest concentration without detected off-target sites / Highest gRNA concentration at which the potential off-target sites were no longer detected: PHH; for On-target indel rate at highest concentration without detected off-target sites: G000480 at 0.57 nM, G000486 at 15.51 nM gRNA; for Highest gRNA concentration at which the potential off-target sites were no longer detected: LNP dose response, 11 points 0.001-46.55 nM gRNA
Method: The HEK293_Cas9 cells used in Example 5 for detecting potential off-targets constitutively overexpress Cas9, leading to a higher number of potential off-target “hits” as compared to a transient delivery paradigm in various cell types. […] Accordingly, potential off-target sites identified by an oligo insertion method as used in Example 5 may be validated using targeted sequencing of the identified potential off-target sites.
In one approach, primary hepatocytes are treated with LNPs comprising Cas9 mRNA and a sgRNA of interest (e.g., a sgRNA having potential off-target sites for evaluation). The primary hepatocytes are then lysed and primers flanking the potential off-target site(s) are used to generate an amplicon for NGS analysis. Identification of indels at a certain level may validate potential off-target site, whereas the lack of indels found at the potential off-target site may indicate a false positive in the HEK293_Cas9 cell assay.
Following the identification of potential off-target sites in […] via the oligo insertion assay, certain potential sites were further evaluated by targeted amplicon sequencing, e.g., as described in Example 6. In addition to the potential off-target sites identified by the oligo insertion strategy, additional potential off-target sites identified by in silico prediction were included in the analysis.
To this end, PHH were treated with LNPs comprising 100 ng of Cas9 mRNA (SEQ ID NO:1) and the gRNA of interest at 14.68 nM (in a 1:1 ratio by weight), as described in Example 4. The LNPs were prepared using the cross-flow procedure described above and purified and concentrated using PD-10 columns and Amicon centrifugal filter units, respectively. The LNPs were formulated with an N:P ratio of 6.0 and contained Lipid A, Cholesterol, DSPC, and PEG2k-DMG in a 50:38:9:2 molar ratio, respectively. Following LNP treatment, isolated genomic DNA was analyzed by NGS (e.g., as described in Examples 1 and 6) to determine whether indels could be detected at the potential off-target site, which would be indicative of a Cas9-mediated cleavage event. Tables 31 and 32 show the potential off-target sites that were evaluated for the gRNAs G000480 and G000486, respectively.
As shown in FIGS. 21A-B and 22A-B and Table 33 below, indels were detected at low levels for only two of the potential off-target sites identified by the oligo insertion assay for G000480, and only one for G000486. […] Further, indels were only detected at these sites using a near-saturating dose of LNP, as the indel rates observed at the on-target sites for G000480 and G000486 were ˜97% and ˜91%, respectively (See Table 33).
A dose response assay was then performed in order to determine the highest dose of LNP in which no off-targets were detected. PHH were treated with LNPs comprising either G000480 or G000486 as described in Example 4. The doses ranged across 11 points with respect to gRNA concentration (0.001 nM, 0.002 nM, 0.007 nM, 0.02 nM, 0.06 nM, 0.19 nM, 0.57 nM, 1.72 nM, 5.17 nM, 15.51 nM, and 46.55 nM).

[3] = Off-Target site INS-OT.4 (of the respective guide)

B1: G000494: TTR sgRNA modified sequence, Human, SEQ ID No. 101; guide sequence of CR003360 (nucleic acid)
guide: mG*mU*mG*rArGrUrCrUrGrGrArGrArGrCrUrGrCrArUrGrUrUrUrUrArGrAmGmCmUmAmGmAmAmAmUmAmGmCrArArGrUrUrArArArArUrArArGrGrCrUrArGrUrCrCrGrUrUrArUrCrAmAmCmUmUmGmAmAmAmAmAmGmUmGmGmCmAmCmCmGmAmGmUmCmGmGmUmGmCmU*mU*mU*mU
Liver editing [1]: ~60%

B2: G000499: TTR sgRNA modified sequence, Human, SEQ ID No. 106; guide sequence of CR005303 (nucleic acid)
guide: mU*mG*mA*rArUrCrCrArArGrUrGrUrCrCrUrCrUrGrArGrUrUrUrUrArGrAmGmCmUmAmGmAmAmAmUmAmGmCrArArGrUrUrArArArArUrArArGrGrCrUrArGrUrCrCrGrUrUrArUrCrAmAmCmUmUmGmAmAmAmAmAmGmUmGmGmCmAmCmCmGmAmGmUmCmGmGmUmGmCmU*mU*mU*mU
Liver editing [1]: ~60% | % Editing [1]: 65.66%

B3: G000486: TTR sgRNA modified sequence, Human, SEQ ID No. 93; guide sequence of CR003339 (nucleic acid)
guide: mA*mC*mA*rCrArArArUrArCrCrArGrUrCrCrArGrCrArGrUrUrUrUrArGrAmGmCmUmAmGmAmAmAmUmAmGmCrArArGrUrUrArArArArUrArArGrGrCrUrArGrUrCrCrGrUrUrArUrCrAmAmCmUmUmGmAmAmAmAmAmGmUmGmGmCmAmCmCmGmAmGmUmCmGmGmUmGmCmU*mU*mU*mU
Indel Frequency (using LNP with 100 ng Cas9 mRNA and 14.68 nM gRNA) [2, 3]: 0.47% | Indel Frequency (using LNP with 100 ng Cas9 mRNA and 14.68 nM gRNA) ([2]; On-Target site): 91.33% | Indel rate at the on-target site [2]: ~91% | Indels at in silico predicted off-target sites [2]: No indels were detected | Number of potential off-target sites identified by the oligo insertion assay at which indels were detected [2]: one | On-target indel rate at highest concentration without detected off-target sites [2]: 89.50% | Highest gRNA concentration at which the potential off-target sites were no longer detected [2]: 15.51 nM

B4: G000480: TTR sgRNA modified sequence, Human, SEQ ID No. 87; guide sequence of CR003353 (nucleic acid)
guide: mA*mA*mA*rGrGrCrUrGrCrUrGrArUrGrArCrArCrCrUrGrUrUrUrUrArGrAmGmCmUmAmGmAmAmAmUmAmGmCrArArGrUrUrArArArArUrArArGrGrCrUrArGrUrCrCrGrUrUrArUrCrAmAmCmUmUmGmAmAmAmAmAmGmUmGmGmCmAmCmCmGmAmGmUmCmGmGmUmGmCmU*mU*mU*mU
Indel Frequency (using LNP with 100 ng Cas9 mRNA and 14.68 nM gRNA) ([2]; Off-Target site INS-OT.2): 1.43% | Indel Frequency (using LNP with 100 ng Cas9 mRNA and 14.68 nM gRNA) [2, 3]: 0.97% | Indel Frequency (using LNP with 100 ng Cas9 mRNA and 14.68 nM gRNA) ([2]; On-Target site): 97.33% | Indel rate at the on-target site [2]: ~97% | Indels at in silico predicted off-target sites [2]: No indels were detected | Number of potential off-target sites identified by the oligo insertion assay at which indels were detected [2]: two | On-target indel rate at highest concentration without detected off-target sites [2]: 84.60% | Highest gRNA concentration at which the potential off-target sites were no longer detected [2]: 0.57 nM

B5: G000481: TTR sgRNA modified sequence, Human, SEQ ID No. 88; guide sequence of CR003345 (nucleic acid)
guide: mU*mC*mU*rArGrArArCrUrUrUrGrArCrCrArUrCrArGrGrUrUrUrUrArGrAmGmCmUmAmGmAmAmAmUmAmGmCrArArGrUrUrArArArArUrArArGrGrCrUrArGrUrCrCrGrUrUrArUrCrAmAmCmUmUmGmAmAmAmAmAmGmUmGmGmCmAmCmCmGmAmGmUmCmGmGmUmGmCmU*mU*mU*mU
% Editing [1]: 61.28%
